Biological target: proteasome regulatory particle (S. cerevisiae) (UniProt P33299)
Assay: co-IP

Sequence of UniProt P33299 (P33299 whole entry, looked up): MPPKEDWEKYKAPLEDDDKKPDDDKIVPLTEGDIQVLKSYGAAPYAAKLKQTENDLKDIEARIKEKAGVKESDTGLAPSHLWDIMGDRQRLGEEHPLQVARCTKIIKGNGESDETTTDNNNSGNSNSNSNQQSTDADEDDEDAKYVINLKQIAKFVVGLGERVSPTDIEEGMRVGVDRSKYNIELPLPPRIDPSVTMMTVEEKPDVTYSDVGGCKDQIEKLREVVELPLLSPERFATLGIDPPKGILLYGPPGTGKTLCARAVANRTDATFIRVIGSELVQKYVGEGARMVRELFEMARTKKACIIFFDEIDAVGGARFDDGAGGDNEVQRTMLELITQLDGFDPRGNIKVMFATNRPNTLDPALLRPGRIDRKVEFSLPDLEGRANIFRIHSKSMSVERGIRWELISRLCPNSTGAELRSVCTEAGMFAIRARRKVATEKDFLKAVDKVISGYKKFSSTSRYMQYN

relative % of RP-bound chaperone in wild type (not4Δ set as 100%): 20%
Substance: Rpn14 (from UniProt P53196 1-417) (natural protein)

From article PMC9214829
